# Laboratory results taken from paper PMC10922771.
# What was measured:
# Assay in all cases: FXase
# [1] = biological target: activated human factor IX Padua (hFIXa-Padua, p.Arg384Leu) (human) (UniProt P00740)
# [2] = biological target: activated FIX-403 (FIXa-403) (human) (UniProt P00740)
# [3] = biological target: activated ET9 (ET9a; FIX-403 with p.Arg384Leu) (human) (UniProt P00740)
# [4] = biological target: activated human factor IX (hFIXa) (human) (UniProt P00740)
substance,measurement,setting,value
"activated factor VIII (FVIIIa), from Advate, recombinant full-length FVIII activated with thrombin (complex)",Kd,[1],1.08 nM
same,Kd,[2],2.08 nM
same,Kd,[3],0.26 nM
same,Kd,[4],7.8 nM
